T1: FcgRIIb (human, UniProt P31994 43-217)
T1 construct: extracellular domain; also called FcγRIIb; not shown: His tag attached to the C terminus
T1 sequence (looked up): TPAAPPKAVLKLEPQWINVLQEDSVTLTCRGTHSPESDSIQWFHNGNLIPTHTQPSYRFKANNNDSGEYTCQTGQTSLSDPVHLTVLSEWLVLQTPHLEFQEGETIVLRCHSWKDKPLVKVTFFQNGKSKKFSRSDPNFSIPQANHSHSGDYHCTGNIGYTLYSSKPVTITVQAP

T2: FcgRIIa H (human, UniProt P12318 34-217)
T2 construct: extracellular domain; also called FcγRIIa H; FcγRIIa type H; not shown: His tag attached to the C terminus
T2 sequence (looked up): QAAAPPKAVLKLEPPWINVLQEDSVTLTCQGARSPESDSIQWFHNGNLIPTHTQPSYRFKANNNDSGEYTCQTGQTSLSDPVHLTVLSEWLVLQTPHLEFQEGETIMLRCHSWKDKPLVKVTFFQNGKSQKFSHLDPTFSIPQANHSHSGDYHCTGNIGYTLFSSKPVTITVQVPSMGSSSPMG

T3: FcgRIIa R (human, UniProt P12318 34-217)
T3 construct: extracellular domain; also called FcγRIIa R; FcγRIIa type R; not shown: His tag attached to the C terminus
T3 sequence (looked up): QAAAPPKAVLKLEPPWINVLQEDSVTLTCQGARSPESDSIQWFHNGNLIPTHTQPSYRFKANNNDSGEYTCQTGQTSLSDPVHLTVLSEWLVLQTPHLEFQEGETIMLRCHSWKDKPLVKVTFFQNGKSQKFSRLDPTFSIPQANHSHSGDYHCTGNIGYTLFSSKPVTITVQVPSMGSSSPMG


What was measured:
Assay in all cases: SPR (Biacore); KD of H240-Kn061/H240-Hl071/L73-k0 divided by KD of the variant
[1] = molecular target: T4, FcgRIIIa F (human, UniProt P08637 17-208)
T4 construct: extracellular domain; also called FcγRIIIa F; 3aF; not shown: His tag attached to the C terminus
Protocol: (§1) The antibodies were assessed for the binding to each FcgR. […] The resultant value was defined as relative KD, and used as an assessment indicator.
(§2) Analysis of interaction between obj ective antibody and the FcγR was carried out using Biacore T100 (GE Healthcare), Biacore T200, Biacore A100, and Biacore 4000. HBS-EP+ (GE Healthcare) was used as the running buffer, and the measurement temperature was set to 25° C. Chips produced by immobilizing the antigen peptide by the amine coupling method to a Series S sensor Chip CM5 (GE Healthcare), chips produced by allowing preliminarily biotinylated antigen peptides to interact with and immobilize onto a Series S Sensor Chip SA (certified) (GE Healthcare), chips produced by immobilizing Protein L (ACTIGEN, BioVision) to Series S Sencor Chip CM5 (GE Healthcare), or chips produced by immobilizing Protein A/G (Thermo Scientific) to Series S Sencor Chip CM5 (GE Healthcare) were used. Antibodies of interest were captured onto these chips, and allowed to interact to each FcγR diluted with running buffer.

[2] = molecular target: T1, FcgRIIb
Protocol: as §1, §2

[3] = molecular target: T2, FcgRIIa H
Protocol: as §1, §2

[4] = molecular target: T5, FcgRIIIa V (human, UniProt P08637 17-208)
T5 construct: extracellular domain; also called FcγRIIIa V; not shown: His tag attached to the C terminus
Protocol: as §1, §2

[5] = molecular target: T3, FcgRIIa R
Protocol: as §1, §2

T5 sequence (P08637 17-208 F176V limits assumed): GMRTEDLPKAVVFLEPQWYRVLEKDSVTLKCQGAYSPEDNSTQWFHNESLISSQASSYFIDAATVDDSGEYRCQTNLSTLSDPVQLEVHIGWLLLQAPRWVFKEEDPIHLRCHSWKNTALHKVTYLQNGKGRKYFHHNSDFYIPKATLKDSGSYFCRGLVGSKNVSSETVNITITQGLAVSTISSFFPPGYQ
T4 sequence (P08637 17-208): as the sequence (P08637 17-208 F176V limits assumed) above, with V160F counted along it

Binder | Relative KD [1] | Relative KD [2] | Relative KD [3] | Relative KD [4] | Relative KD [5]
H240-Kn061 (A231Q)/H240-Hl071/L73-k0 (antibody, human IgG1, kappa) heavy 1: QDQLVQSGAEVKKPGASVKVSCKASGFNIKDTYIQWVRQAPGQGLEWMGRIDPLRKQTKYREKFEGRVTITADTSTNTAYMELSSLRSEDTAVYYCVRSGREFDYWGQGTLVTVSSASTKGPSVFPLAPSSKSTSGGTAALGCLVKDYFPEPVTVSWNSGALTSGVHTFPAVLQSSGLYSLSSVVTVPSSSLGTQTYICNVNHKPSNTKVDKKVEPKSCDKTHTCPPCPQPEYYWGPSVFLFPPKPKDTLMISRTPEVTCVVVDVSDEDPEVKFNWYVDGVEVHNAKTKPREEQYNATYRVVSVLTVLHQDWLNGKEYKCKVSNKALPAPIEKTISKAKGQPREPQVCTLPPSRDELTKNQVSLWCLVKGFYPSDIAVEWESNGQPENNYKTTPPVLDSDGSFFLYSKLTVDKSRWQQGNVFSCSVMHEALHNHYTQKSLSLSP heavy 2: QDQLVQSGAEVKKPGASVKVSCKASGFNIKDTYIQWVRQAPGQGLEWMGRIDPLRKQTKYREKFEGRVTITADTSTNTAYMELSSLRSEDTAVYYCVRSGREFDYWGQGTLVTVSSASTKGPSVFPLAPSSKSTSGGTAALGCLVKDYFPEPVTVSWNSGALTSGVHTFPAVLQSSGLYSLSSVVTVPSSSLGTQTYICNVNHKPSNTKVDKKVEPKSCDKTHTCPPCPAPELLGGPSVFLFPPKPKDTLMISRTPEVTCVVVDVSHEDPEVKFNWYVDGVEVHNAKTKPREEQYNSTYRVVSVLTVLHQDWLNGKEYKCKVSNDALPMPIEETISKAKGQPREPQVYTLPPSRCELTKNQVSLSCAVKGFYPSDIAVEWESNGQPENNYKTTPPVLDSDGSFFLVSKLTVDKSRWQQGNVFSCSVMHEALHNHYTQKSLSLSP light: DIQMTQSPSSLSASVGDRVTITCRASQDIHKYIAWYQQKPGQAPRLLIQYTSTLQPGVPSRFSGSGSGTDYTFTISSLQPEDIATYYCLQYEQLRTFGGGTKVEIKRTVAAPSVFIFPPSDEQLKSGTASVVCLLNNFYPREAKVQWKVDNALQSGNSQESVTEQDSKDSTYSLSSTLTLSKADYEKHKVYACEVTHQGLSSPVTKSFNRGEC | 1.5 | 1.4 | 1.5 | 1.7 | 1.5
H240-Kn061 (A231V)/H240-Hl071/L73-k0 (antibody, human IgG1, kappa) heavy 1: QDQLVQSGAEVKKPGASVKVSCKASGFNIKDTYIQWVRQAPGQGLEWMGRIDPLRKQTKYREKFEGRVTITADTSTNTAYMELSSLRSEDTAVYYCVRSGREFDYWGQGTLVTVSSASTKGPSVFPLAPSSKSTSGGTAALGCLVKDYFPEPVTVSWNSGALTSGVHTFPAVLQSSGLYSLSSVVTVPSSSLGTQTYICNVNHKPSNTKVDKKVEPKSCDKTHTCPPCPVPEYYWGPSVFLFPPKPKDTLMISRTPEVTCVVVDVSDEDPEVKFNWYVDGVEVHNAKTKPREEQYNATYRVVSVLTVLHQDWLNGKEYKCKVSNKALPAPIEKTISKAKGQPREPQVCTLPPSRDELTKNQVSLWCLVKGFYPSDIAVEWESNGQPENNYKTTPPVLDSDGSFFLYSKLTVDKSRWQQGNVFSCSVMHEALHNHYTQKSLSLSP heavy 2: QDQLVQSGAEVKKPGASVKVSCKASGFNIKDTYIQWVRQAPGQGLEWMGRIDPLRKQTKYREKFEGRVTITADTSTNTAYMELSSLRSEDTAVYYCVRSGREFDYWGQGTLVTVSSASTKGPSVFPLAPSSKSTSGGTAALGCLVKDYFPEPVTVSWNSGALTSGVHTFPAVLQSSGLYSLSSVVTVPSSSLGTQTYICNVNHKPSNTKVDKKVEPKSCDKTHTCPPCPAPELLGGPSVFLFPPKPKDTLMISRTPEVTCVVVDVSHEDPEVKFNWYVDGVEVHNAKTKPREEQYNSTYRVVSVLTVLHQDWLNGKEYKCKVSNDALPMPIEETISKAKGQPREPQVYTLPPSRCELTKNQVSLSCAVKGFYPSDIAVEWESNGQPENNYKTTPPVLDSDGSFFLVSKLTVDKSRWQQGNVFSCSVMHEALHNHYTQKSLSLSP light: DIQMTQSPSSLSASVGDRVTITCRASQDIHKYIAWYQQKPGQAPRLLIQYTSTLQPGVPSRFSGSGSGTDYTFTISSLQPEDIATYYCLQYEQLRTFGGGTKVEIKRTVAAPSVFIFPPSDEQLKSGTASVVCLLNNFYPREAKVQWKVDNALQSGNSQESVTEQDSKDSTYSLSSTLTLSKADYEKHKVYACEVTHQGLSSPVTKSFNRGEC | 1.3 | 1.6 | 1.6 | 1.5 | 1.6
H240-Kn061 (S239I)/H240-Hl071/L73-k0 (antibody, human IgG1, kappa) heavy 1: QDQLVQSGAEVKKPGASVKVSCKASGFNIKDTYIQWVRQAPGQGLEWMGRIDPLRKQTKYREKFEGRVTITADTSTNTAYMELSSLRSEDTAVYYCVRSGREFDYWGQGTLVTVSSASTKGPSVFPLAPSSKSTSGGTAALGCLVKDYFPEPVTVSWNSGALTSGVHTFPAVLQSSGLYSLSSVVTVPSSSLGTQTYICNVNHKPSNTKVDKKVEPKSCDKTHTCPPCPAPEYYWGPIVFLFPPKPKDTLMISRTPEVTCVVVDVSDEDPEVKFNWYVDGVEVHNAKTKPREEQYNATYRVVSVLTVLHQDWLNGKEYKCKVSNKALPAPIEKTISKAKGQPREPQVCTLPPSRDELTKNQVSLWCLVKGFYPSDIAVEWESNGQPENNYKTTPPVLDSDGSFFLYSKLTVDKSRWQQGNVFSCSVMHEALHNHYTQKSLSLSP heavy 2: QDQLVQSGAEVKKPGASVKVSCKASGFNIKDTYIQWVRQAPGQGLEWMGRIDPLRKQTKYREKFEGRVTITADTSTNTAYMELSSLRSEDTAVYYCVRSGREFDYWGQGTLVTVSSASTKGPSVFPLAPSSKSTSGGTAALGCLVKDYFPEPVTVSWNSGALTSGVHTFPAVLQSSGLYSLSSVVTVPSSSLGTQTYICNVNHKPSNTKVDKKVEPKSCDKTHTCPPCPAPELLGGPSVFLFPPKPKDTLMISRTPEVTCVVVDVSHEDPEVKFNWYVDGVEVHNAKTKPREEQYNSTYRVVSVLTVLHQDWLNGKEYKCKVSNDALPMPIEETISKAKGQPREPQVYTLPPSRCELTKNQVSLSCAVKGFYPSDIAVEWESNGQPENNYKTTPPVLDSDGSFFLVSKLTVDKSRWQQGNVFSCSVMHEALHNHYTQKSLSLSP light: DIQMTQSPSSLSASVGDRVTITCRASQDIHKYIAWYQQKPGQAPRLLIQYTSTLQPGVPSRFSGSGSGTDYTFTISSLQPEDIATYYCLQYEQLRTFGGGTKVEIKRTVAAPSVFIFPPSDEQLKSGTASVVCLLNNFYPREAKVQWKVDNALQSGNSQESVTEQDSKDSTYSLSSTLTLSKADYEKHKVYACEVTHQGLSSPVTKSFNRGEC | 3 | 3.1 | 2.1 | 3.4 | 4.4
